The values below come from patent US20090233982.

Series [1] addresses Misu (full length, mouse) (Mus musculus) (UniProt Q1HFZ0). Conditions: 14C-SAM incorporation, 37 C 1 h.
Series [2] has the same target. Conditions: 14C-SAM incorporation, 37 C 1 h, DNase treated; about two fold without DNase.
A further series has as its system Dnmt1 (Mus musculus). Particulars: 14C-SAM incorporation; as efficient as Misu.

Read-outs that look alike come from different tables or passages of the source.

Misu (full length, mouse) (Mus musculus), sequence (Q1HFZ0 whole entry): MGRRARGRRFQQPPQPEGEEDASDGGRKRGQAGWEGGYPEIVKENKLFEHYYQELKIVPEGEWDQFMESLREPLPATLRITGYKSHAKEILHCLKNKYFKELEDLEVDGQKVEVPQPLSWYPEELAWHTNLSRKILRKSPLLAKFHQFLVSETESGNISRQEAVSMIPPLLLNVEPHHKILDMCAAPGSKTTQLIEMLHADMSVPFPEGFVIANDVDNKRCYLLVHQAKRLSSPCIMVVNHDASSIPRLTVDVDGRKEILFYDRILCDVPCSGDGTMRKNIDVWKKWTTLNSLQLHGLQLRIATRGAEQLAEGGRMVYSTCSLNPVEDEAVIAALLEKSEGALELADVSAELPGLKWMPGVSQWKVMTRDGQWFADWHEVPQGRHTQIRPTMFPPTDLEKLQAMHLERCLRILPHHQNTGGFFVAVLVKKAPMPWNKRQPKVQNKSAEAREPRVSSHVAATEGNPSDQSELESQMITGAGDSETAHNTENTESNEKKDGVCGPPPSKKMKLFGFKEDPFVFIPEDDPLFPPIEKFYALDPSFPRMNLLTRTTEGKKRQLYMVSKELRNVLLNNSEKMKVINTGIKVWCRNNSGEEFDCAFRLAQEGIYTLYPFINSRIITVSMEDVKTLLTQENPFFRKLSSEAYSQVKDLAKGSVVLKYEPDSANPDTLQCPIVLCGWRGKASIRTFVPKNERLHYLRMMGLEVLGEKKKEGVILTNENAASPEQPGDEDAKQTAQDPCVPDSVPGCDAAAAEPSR

Consider “hemi-methylated double stranded oligonucleotide”, for which, in series [1] (5mC on one strand (hemi-methylated), retained after RNase), the activity (fold over control) stood at 2.
E. coli tRNA: the activity (fold over control) in series [2] is 3; with Dnmt1 (Mus musculus) it was 2.
With E. coli rRNA, the activity (fold over control) (with Dnmt1 (Mus musculus); in series [1]) was 2 each time.
